{"source": "paper PMC11059001", "key": {"[1]": {"target": "complement C1q (human) (UniProt P02745)", "sequence (P02745 23-245, chain 1 of 3)": "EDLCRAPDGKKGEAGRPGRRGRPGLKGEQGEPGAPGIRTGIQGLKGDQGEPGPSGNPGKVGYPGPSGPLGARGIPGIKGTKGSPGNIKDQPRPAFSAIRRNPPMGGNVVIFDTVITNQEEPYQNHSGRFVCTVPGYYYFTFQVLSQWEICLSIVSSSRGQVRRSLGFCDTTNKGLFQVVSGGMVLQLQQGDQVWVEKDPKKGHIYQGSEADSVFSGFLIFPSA", "sequence (P02746 28-253, chain 2 of 3, further chain)": "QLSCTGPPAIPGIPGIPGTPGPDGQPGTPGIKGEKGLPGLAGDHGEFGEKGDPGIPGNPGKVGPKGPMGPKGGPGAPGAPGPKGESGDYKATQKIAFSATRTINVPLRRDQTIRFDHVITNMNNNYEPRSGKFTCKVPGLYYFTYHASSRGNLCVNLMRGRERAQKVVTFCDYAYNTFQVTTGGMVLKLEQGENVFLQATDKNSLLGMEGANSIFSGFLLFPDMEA", "sequence (P02747 29-245, chain 3 of 3, further chain)": "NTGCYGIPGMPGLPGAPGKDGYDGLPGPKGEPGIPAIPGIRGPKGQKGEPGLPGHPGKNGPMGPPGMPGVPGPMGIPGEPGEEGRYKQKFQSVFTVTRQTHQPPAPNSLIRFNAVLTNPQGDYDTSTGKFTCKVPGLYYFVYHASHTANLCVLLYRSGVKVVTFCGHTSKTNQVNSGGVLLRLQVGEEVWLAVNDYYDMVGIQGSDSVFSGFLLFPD", "assay": "MST; fluorescently labelled C1q (RED-NHS) 40 nM; TsCRT, TsCRT^Δ, mutants or P^TsCRT gradient-diluted; 50 mM Hepes, 150 mM NaCl, 2 mM CaCl2, 0.05% Tween 20, pH 7.4; Monolith NT.115, LED power 20%, MST power 50%"}, "[2]": {"target": "complement C1q (human) (UniProt P02745)", "assay": "MST; with 20 uM TsCRT^Δ H46A/K47A/D49A competitor"}, "[3]": {"target": "complement C1q (human) (UniProt P02745)", "assay": "MST; with 20 uM TsCRT^Δ I140A/G142A competitor"}, "[4]": {"target": "complement C1q (human) (UniProt P02745)", "assay": "MST; with 20 uM TsCRT^Δ P143A/E144A competitor"}, "[5]": {"target": "complement C1q (human) (UniProt P02745)", "assay": "MST; competitive binding: IgG with fluorescently labelled C1q (40 nM) in the presence of 20 µM TsCRT^Δ, a mutant or P^TsCRT; 50 mM Hepes, 150 mM NaCl, 2 mM CaCl2, 0.05% Tween 20, pH 7.4; LED power 60%, MST power 50%"}, "[6]": {"target": "complement C1q (human) (UniProt P02745)", "assay": "MST; IgG incubated with fluorescently labelled C1q (40 nM) alone, no competitor; 50 mM Hepes, 150 mM NaCl, 2 mM CaCl2, 0.05% Tween 20, pH 7.4; LED power 60%, MST power 50%"}}, "note": "pKd: −log10 of the molar value."}
{"substance": "Trichinella spiralis calreticulin, full-length (natural protein)", "values": [{"measurement": "pKd", "setting": "[1]", "result": 3.59}]}
{"substance": "TsCRT^Δ mutant D129A (domain or fragment)", "values": [{"measurement": "pKd", "setting": "[1]", "result": 3.91}]}
{"substance": "TsCRT^Δ mutant H46A/K47A/D49A (domain or fragment)", "values": [{"measurement": "pKd", "setting": "[1]", "result": 4.26}]}
{"substance": "TsCRT^Δ mutant I140A/G142A (domain or fragment)", "values": [{"measurement": "pKd", "setting": "[1]", "result": 4.26}]}
{"substance": "TsCRT^Δ mutant P143A/E144A (domain or fragment)", "values": [{"measurement": "pKd", "setting": "[1]", "result": 4.18}]}
{"substance": "human IgG", "values": [{"measurement": "pKd", "setting": "[2]", "result": 5.40}, {"measurement": "pKd", "setting": "[3]", "result": 5.26}, {"measurement": "pKd", "setting": "[4]", "result": 5.38}]}
{"substance": "human IgG (antibody)", "values": [{"measurement": "KD of C1q-IgG with P^TsCRT (20 µM)", "setting": "[5]", "result": 172, "unit": "µM"}, {"measurement": "KD of C1q-IgG with TsCRT^Δ (20 µM)", "setting": "[5]", "result": 409, "unit": "µM"}, {"measurement": "KD of C1q-IgG with the mutant D129A", "setting": "[5]", "result": 0.32, "unit": "µM"}, {"measurement": "pKd", "setting": "[6]", "result": 6.85}]}
{"substance": "truncated Trichinella spiralis calreticulin TsCRT^Δ (22-209, GSG linker, 305-364) (domain or fragment)", "values": [{"measurement": "pKd", "setting": "[1]", "result": 5.04}]}
